Results reported in patent US20150344570A1 (published 2015).

B1: GpH7-A5/GpH7-B3 variant D270_18N/GpL16-k0 (antibody, human IgG1, kappa)
heavy 1: not shown
heavy 2: not shown
light: DIVMTQSPLSLPVTPGEPASISCQASESLVHSNRNTYLHWYLQKPGQSPQLLIYKVSNRFSGVPDRFSGSGSGTDFTLKISRVEAEDVGVYYCSQNTHVPPTFGQGTKVEIERTVAAPSVFIFPPSDEQLKSGTASVVCLLNNFYPREAKVQWKVDNALQSGNSQESVTEQDSKDSTYSLSSTLTLSKADYEKHKVYACEVTHQGLSSPVTKSFNRGEC
notes: Heterodimerized anti-glypican-3 IgG1 with the alteration in only one H chain; also called He Ab
B2: GpH7-A5/GpH7-B3 variant D270_19Q/GpL16-k0 (antibody, human IgG1, kappa)
heavy 1: not shown
heavy 2: not shown
light: B1 light
notes: as for B1
B3: GpH7-A5/GpH7-B3 variant E269_03V/GpL16-k0 (antibody, human IgG1, kappa)
heavy 1: not shown
heavy 2: not shown
light: B1 light
notes: as for B1
B4: GpH7-A5/GpH7-B3 variant E269_06M/GpL16-k0 (antibody, human IgG1, kappa)
heavy 1: not shown
heavy 2: not shown
light: B1 light
notes: as for B1
B5: GpH7-A5/GpH7-B3 variant E269_07I/GpL16-k0 (antibody, human IgG1, kappa)
heavy 1: not shown
heavy 2: not shown
light: B1 light
notes: as for B1
B6: GpH7-A5/GpH7-B3 variant E269_08L/GpL16-k0 (antibody, human IgG1, kappa)
heavy 1: not shown
heavy 2: not shown
light: B1 light
notes: as for B1
B7: GpH7-A5/GpH7-B3 variant E269_11K/GpL16-k0 (antibody, human IgG1, kappa)
heavy 1: not shown
heavy 2: not shown
light: B1 light
notes: as for B1
B8: GpH7-A5/GpH7-B3 variant E269_12R/GpL16-k0 (antibody, human IgG1, kappa)
heavy 1: not shown
heavy 2: not shown
light: B1 light
notes: as for B1
B9: GpH7-A5/GpH7-B3 variant E269_13S/GpL16-k0 (antibody, human IgG1, kappa)
heavy 1: not shown
heavy 2: not shown
light: B1 light
notes: as for B1
B10: GpH7-A5/GpH7-B3 variant E269_16H/GpL16-k0 (antibody, human IgG1, kappa)
heavy 1: not shown
heavy 2: not shown
light: B1 light
notes: as for B1
B11: GpH7-A5/GpH7-B3 variant E269_18N/GpL16-k0 (antibody, human IgG1, kappa)
heavy 1: not shown
heavy 2: not shown
light: B1 light
notes: as for B1
B12: GpH7-A5/GpH7-B3 variant E269_19Q/GpL16-k0 (antibody, human IgG1, kappa)
heavy 1: not shown
heavy 2: not shown
light: B1 light
notes: as for B1
B13: GpH7-A5/GpH7-B3 variant P271_20W/GpL16-k0 (antibody, human IgG1, kappa)
heavy 1: not shown
heavy 2: not shown
light: B1 light
notes: as for B1
B14: GpH7-A5/GpH7-B3 variant Q295_01G/GpL16-k0 (antibody, human IgG1, kappa)
heavy 1: not shown
heavy 2: not shown
light: B1 light
notes: as for B1
B15: GpH7-A5/GpH7-B3 variant Q295_02A/GpL16-k0 (antibody, human IgG1, kappa)
heavy 1: not shown
heavy 2: not shown
light: B1 light
notes: as for B1
B16: GpH7-A5/GpH7-B3 variant Q295_09D/GpL16-k0 (antibody, human IgG1, kappa)
heavy 1: not shown
heavy 2: not shown
light: B1 light
notes: as for B1

biological target: T1, FcγRIIIa extracellular domain with C-terminal His tag (human, UniProt P08637 17-208); assay: SPR (Biacore), antibody captured, FcγR as analyte; binding activity relative to control heterodimerized antibody
T1 construct: extracellular domain; also called FcgRIIIa; 3a; not shown: His tag attached to the C terminus
T1 sequence (P08637 17-208): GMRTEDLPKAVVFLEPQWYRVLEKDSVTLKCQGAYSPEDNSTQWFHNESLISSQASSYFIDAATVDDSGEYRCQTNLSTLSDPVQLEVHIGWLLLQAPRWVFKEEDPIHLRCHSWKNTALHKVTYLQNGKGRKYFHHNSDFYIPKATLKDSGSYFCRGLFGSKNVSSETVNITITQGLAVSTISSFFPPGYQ
Procedure: (§1) The heterodimerized antibodies He Abs in which one of the H chains was introduced with an alteration were assayed for their binding activities to each activating FcγR and inhibitory FcγR according to the method described in Example 4. […] The activating FcγRs in FIGS. 26, 27, 28, and 29 are FcγRIa, FcγRIIa (R), FcγRIIa (H), and FcγRIIIa, respectively.
(§2) Analysis of interaction between objective antibody and the FcγR was carried out using Biacore T100 (GE Healthcare). HBS-EP+ (GE Healthcare) was used as the running buffer, and the measurement temperature was set to 25° C. Chips produced by immobilizing the antigen peptide by the amine coupling method to a Series S Sencor Chip CM5 (GE Healthcare), or alternatively, chips produced by allowing preliminarily biotinylated antigen peptides to interact with and immobilize onto a Series S Sensor Chip SA (certified) (GE Healthcare) were used. Antibodies of interest were captured onto an antigen peptide-immobilized chip, and allowed to interact to each FcγR diluted with running buffer. To regenerate and repeatedly use the chip, the antibodies captured on the chip were washed off by reacting 10 mM glycine-HCl, pH 1.5.

Binder	He/Con_3a
B1	56.5 % of GpH7-A5/GpH7-B3/GpL16-k0 (=100)
B2	81.9 % of GpH7-A5/GpH7-B3/GpL16-k0 (=100)
B3	56.6 % of GpH7-A5/GpH7-B3/GpL16-k0 (=100)
B4	58.5 % of GpH7-A5/GpH7-B3/GpL16-k0 (=100)
B5	55.8 % of GpH7-A5/GpH7-B3/GpL16-k0 (=100)
B6	52.1 % of GpH7-A5/GpH7-B3/GpL16-k0 (=100)
B7	44 % of GpH7-A5/GpH7-B3/GpL16-k0 (=100)
B8	43.2 % of GpH7-A5/GpH7-B3/GpL16-k0 (=100)
B9	62.7 % of GpH7-A5/GpH7-B3/GpL16-k0 (=100)
B10	51.2 % of GpH7-A5/GpH7-B3/GpL16-k0 (=100)
B11	57.8 % of GpH7-A5/GpH7-B3/GpL16-k0 (=100)
B12	65 % of GpH7-A5/GpH7-B3/GpL16-k0 (=100)
B13	74.1 % of GpH7-A5/GpH7-B3/GpL16-k0 (=100)
B14	73 % of GpH7-A5/GpH7-B3/GpL16-k0 (=100)
B15	106 % of GpH7-A5/GpH7-B3/GpL16-k0 (=100)
B16	81.5 % of GpH7-A5/GpH7-B3/GpL16-k0 (=100)

biological target: T2, FcγRIIb extracellular domain with C-terminal His tag (human, UniProt P31994 43-217); assay: as above
T2 construct: extracellular domain; Soluble receptor expressed in FreeStyle293 cells and used as analyte in Biacore; also called FcgRIIb; 2b; not shown: His tag attached to the C terminus
T2 sequence (looked up): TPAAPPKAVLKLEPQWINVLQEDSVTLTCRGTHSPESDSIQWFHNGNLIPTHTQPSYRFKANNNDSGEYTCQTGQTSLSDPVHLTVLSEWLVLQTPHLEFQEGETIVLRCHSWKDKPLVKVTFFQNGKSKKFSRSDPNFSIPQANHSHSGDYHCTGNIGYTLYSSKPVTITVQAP
Procedure: as §1, §2

Binder	He/Con_2b
B1	40.3 % of GpH7-A5/GpH7-B3/GpL16-k0 (=100)
B2	48 % of GpH7-A5/GpH7-B3/GpL16-k0 (=100)
B3	45.1 % of GpH7-A5/GpH7-B3/GpL16-k0 (=100)
B4	46.7 % of GpH7-A5/GpH7-B3/GpL16-k0 (=100)
B5	43.9 % of GpH7-A5/GpH7-B3/GpL16-k0 (=100)
B6	42.9 % of GpH7-A5/GpH7-B3/GpL16-k0 (=100)
B7	17.8 % of GpH7-A5/GpH7-B3/GpL16-k0 (=100)
B8	25.2 % of GpH7-A5/GpH7-B3/GpL16-k0 (=100)
B9	47.8 % of GpH7-A5/GpH7-B3/GpL16-k0 (=100)
B10	38.5 % of GpH7-A5/GpH7-B3/GpL16-k0 (=100)
B11	44.8 % of GpH7-A5/GpH7-B3/GpL16-k0 (=100)
B12	44.3 % of GpH7-A5/GpH7-B3/GpL16-k0 (=100)
B13	58.1 % of GpH7-A5/GpH7-B3/GpL16-k0 (=100)
B14	46 % of GpH7-A5/GpH7-B3/GpL16-k0 (=100)
B15	79.7 % of GpH7-A5/GpH7-B3/GpL16-k0 (=100)
B16	60.8 % of GpH7-A5/GpH7-B3/GpL16-k0 (=100)

biological target: T1, FcγRIIIa extracellular domain with …; assay: SPR (Biacore); He/Con_3a divided by He/Con_2b (FcγRIIIa over FcγRIIb)
Procedure: as §1, §2

Binder	He_3a/2b
B1	1.4 ratio
B2	1.7 ratio
B3	1.25 ratio
B4	1.25 ratio
B5	1.27 ratio
B6	1.21 ratio
B7	2.47 ratio
B8	1.72 ratio
B9	1.31 ratio
B10	1.33 ratio
B11	1.29 ratio
B12	1.47 ratio
B13	1.28 ratio
B14	1.59 ratio
B15	1.32 ratio
B16	1.34 ratio
